In patent publication US12679878B2, “CRF2 receptor agonists and their use in therapy” (SANOFI, priority 2020, dated 2026) one finds EC50 [nM], 0% HSA and EC50 [nM], 0.1% HSA data, which are given here for eight molecules.

The experiment concerns the target human corticotropin-releasing factor 2α (CRF2 α receptor) (human), Q13324. As to the kind of experiment: cell-based or functional assay.

Starred links: 1 amine or outer side, 2 acyl side, 3 side chain; linkers in the order of their positions; H or OH if unused. Non-standard residues stand in square brackets, D forms with d. Groups on a side chain read outwards from the residue. No end group written: not given here. *: point of attachment. C18 diacid = O=C(O)CCCCCCCCCCCCCCCCC(=O)*; γGlu = O=C(O)[C@H](CCC(=O)[*:2])N[*:1]; Palmitoyl = CCCCCCCCCCCCCCCC(=O)*; AEEA = NCCOCCOCC(=O)O; Aib = CC(C)(N)C(=O)O

human corticotropin-releasing factor 2α (CRF2 α receptor) (human), Q13324, sequence (Q13324 20-411): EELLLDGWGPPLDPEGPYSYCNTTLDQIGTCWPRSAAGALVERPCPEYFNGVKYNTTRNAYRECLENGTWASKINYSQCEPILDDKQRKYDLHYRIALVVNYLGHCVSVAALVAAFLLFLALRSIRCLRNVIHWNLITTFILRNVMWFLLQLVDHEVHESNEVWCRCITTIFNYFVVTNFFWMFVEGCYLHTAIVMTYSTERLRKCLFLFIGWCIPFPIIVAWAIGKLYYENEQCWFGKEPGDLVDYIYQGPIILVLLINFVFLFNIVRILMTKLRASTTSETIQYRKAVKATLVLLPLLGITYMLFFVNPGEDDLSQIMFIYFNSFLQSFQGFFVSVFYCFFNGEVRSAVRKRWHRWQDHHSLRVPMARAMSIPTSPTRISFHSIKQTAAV

B1: SEQ ID NO: 116 (peptide)
peptide: IVLSLDVPIKLK([AEEA-AEEA-γGlu-C18 diacid])QILLKQERQK[Aib]QREKAEKNKQILAQV-NH2
modifications: N-terminus assumed
SMILES: CC[C@H](C)[C@H](N)C(=O)N[C@H](C(=O)N[C@@H](CC(C)C)C(=O)N[C@@H](CO)C(=O)N[C@@H](CC(C)C)C(=O)N[C@@H](CC(=O)O)C(=O)N[C@H](C(=O)N1CCC[C@H]1C(=O)N[C@H](C(=O)N[C@@H](CCCCN)C(=O)N[C@@H](CC(C)C)C(=O)N[C@@H](CCCCNC(=O)COCCOCCNC(=O)COCCOCCNC(=O)CC[C@H](NC(=O)CCCCCCCCCCCCCCCCC(=O)O)C(=O)O)C(=O)N[C@@H](CCC(N)=O)C(=O)N[C@H](C(=O)N[C@@H](CC(C)C)C(=O)N[C@@H](CC(C)C)C(=O)N[C@@H](CCCCN)C(=O)N[C@@H](CCC(N)=O)C(=O)N[C@@H](CCC(=O)O)C(=O)N[C@@H](CCCNC(=N)N)C(=O)N[C@@H](CCC(N)=O)C(=O)N[C@@H](CCCCN)C(=O)NC(C)(C)C(=O)N[C@@H](CCC(N)=O)C(=O)N[C@@H](CCCNC(=N)N)C(=O)N[C@@H](CCC(=O)O)C(=O)N[C@@H](CCCCN)C(=O)N[C@@H](C)C(=O)N[C@@H](CCC(=O)O)C(=O)N[C@@H](CCCCN)C(=O)N[C@@H](CC(N)=O)C(=O)N[C@@H](CCCCN)C(=O)N[C@@H](CCC(N)=O)C(=O)N[C@H](C(=O)N[C@@H](CC(C)C)C(=O)N[C@@H](C)C(=O)N[C@@H](CCC(N)=O)C(=O)N[C@H](C(N)=O)C(C)C)[C@@H](C)CC)[C@@H](C)CC)[C@@H](C)CC)C(C)C)C(C)C
B1 gave an EC50 [nM], 0% HSA of 0.7 nM.

B2: SEQ ID NO: 11 (peptide)
peptide: FTLSLDVPTKIK([γGlu-Palmitoyl])QKLLKQEKQKKQRQKAKTNAQILAQV-NH2
modifications: N-terminus assumed
SMILES: CCCCCCCCCCCCCCCC(=O)N[C@@H](CCC(=O)NCCCC[C@H](NC(=O)[C@@H](NC(=O)[C@H](CCCCN)NC(=O)[C@@H](NC(=O)[C@@H]1CCCN1C(=O)[C@@H](NC(=O)[C@H](CC(=O)O)NC(=O)[C@H](CC(C)C)NC(=O)[C@H](CO)NC(=O)[C@H](CC(C)C)NC(=O)[C@@H](NC(=O)[C@@H](N)Cc1ccccc1)[C@@H](C)O)C(C)C)[C@@H](C)O)[C@@H](C)CC)C(=O)N[C@@H](CCC(N)=O)C(=O)N[C@@H](CCCCN)C(=O)N[C@@H](CC(C)C)C(=O)N[C@@H](CC(C)C)C(=O)N[C@@H](CCCCN)C(=O)N[C@@H](CCC(N)=O)C(=O)N[C@@H](CCC(=O)O)C(=O)N[C@@H](CCCCN)C(=O)N[C@@H](CCC(N)=O)C(=O)N[C@@H](CCCCN)C(=O)N[C@@H](CCCCN)C(=O)N[C@@H](CCC(N)=O)C(=O)N[C@@H](CCCNC(=N)N)C(=O)N[C@@H](CCC(N)=O)C(=O)N[C@@H](CCCCN)C(=O)N[C@@H](C)C(=O)N[C@@H](CCCCN)C(=O)N[C@H](C(=O)N[C@@H](CC(N)=O)C(=O)N[C@@H](C)C(=O)N[C@@H](CCC(N)=O)C(=O)N[C@H](C(=O)N[C@@H](CC(C)C)C(=O)N[C@@H](C)C(=O)N[C@@H](CCC(N)=O)C(=O)N[C@H](C(N)=O)C(C)C)[C@@H](C)CC)[C@@H](C)O)C(=O)O
For B2, the EC50 [nM], 0% HSA was 0.02 nM.

B3: SEQ ID NO: 8 (peptide)
peptide: FTLSLDVPTKIK([γGlu-Palmitoyl])QKLLKQEKQKKQRQKAKTAAQILAQV-NH2
modifications: N-terminus assumed
SMILES: CCCCCCCCCCCCCCCC(=O)N[C@@H](CCC(=O)NCCCC[C@H](NC(=O)[C@@H](NC(=O)[C@H](CCCCN)NC(=O)[C@@H](NC(=O)[C@@H]1CCCN1C(=O)[C@@H](NC(=O)[C@H](CC(=O)O)NC(=O)[C@H](CC(C)C)NC(=O)[C@H](CO)NC(=O)[C@H](CC(C)C)NC(=O)[C@@H](NC(=O)[C@@H](N)Cc1ccccc1)[C@@H](C)O)C(C)C)[C@@H](C)O)[C@@H](C)CC)C(=O)N[C@@H](CCC(N)=O)C(=O)N[C@@H](CCCCN)C(=O)N[C@@H](CC(C)C)C(=O)N[C@@H](CC(C)C)C(=O)N[C@@H](CCCCN)C(=O)N[C@@H](CCC(N)=O)C(=O)N[C@@H](CCC(=O)O)C(=O)N[C@@H](CCCCN)C(=O)N[C@@H](CCC(N)=O)C(=O)N[C@@H](CCCCN)C(=O)N[C@@H](CCCCN)C(=O)N[C@@H](CCC(N)=O)C(=O)N[C@@H](CCCNC(=N)N)C(=O)N[C@@H](CCC(N)=O)C(=O)N[C@@H](CCCCN)C(=O)N[C@@H](C)C(=O)N[C@@H](CCCCN)C(=O)N[C@H](C(=O)N[C@@H](C)C(=O)N[C@@H](C)C(=O)N[C@@H](CCC(N)=O)C(=O)N[C@H](C(=O)N[C@@H](CC(C)C)C(=O)N[C@@H](C)C(=O)N[C@@H](CCC(N)=O)C(=O)N[C@H](C(N)=O)C(C)C)[C@@H](C)CC)[C@@H](C)O)C(=O)O
B3 displayed an EC50 [nM], 0% HSA of 0.2 nM.

B4: SEQ ID NO: 115 (peptide)
peptide: IVLSLDVPIKLK([AEEA-AEEA-γGlu-C18 diacid])QILLKQERQK[Aib]QREQAEKNKQILERV-NH2
modifications: N-terminus assumed
SMILES: CC[C@H](C)[C@H](N)C(=O)N[C@H](C(=O)N[C@@H](CC(C)C)C(=O)N[C@@H](CO)C(=O)N[C@@H](CC(C)C)C(=O)N[C@@H](CC(=O)O)C(=O)N[C@H](C(=O)N1CCC[C@H]1C(=O)N[C@H](C(=O)N[C@@H](CCCCN)C(=O)N[C@@H](CC(C)C)C(=O)N[C@@H](CCCCNC(=O)COCCOCCNC(=O)COCCOCCNC(=O)CC[C@H](NC(=O)CCCCCCCCCCCCCCCCC(=O)O)C(=O)O)C(=O)N[C@@H](CCC(N)=O)C(=O)N[C@H](C(=O)N[C@@H](CC(C)C)C(=O)N[C@@H](CC(C)C)C(=O)N[C@@H](CCCCN)C(=O)N[C@@H](CCC(N)=O)C(=O)N[C@@H](CCC(=O)O)C(=O)N[C@@H](CCCNC(=N)N)C(=O)N[C@@H](CCC(N)=O)C(=O)N[C@@H](CCCCN)C(=O)NC(C)(C)C(=O)N[C@@H](CCC(N)=O)C(=O)N[C@@H](CCCNC(=N)N)C(=O)N[C@@H](CCC(=O)O)C(=O)N[C@@H](CCC(N)=O)C(=O)N[C@@H](C)C(=O)N[C@@H](CCC(=O)O)C(=O)N[C@@H](CCCCN)C(=O)N[C@@H](CC(N)=O)C(=O)N[C@@H](CCCCN)C(=O)N[C@@H](CCC(N)=O)C(=O)N[C@H](C(=O)N[C@@H](CC(C)C)C(=O)N[C@@H](CCC(=O)O)C(=O)N[C@@H](CCCNC(=N)N)C(=O)N[C@H](C(N)=O)C(C)C)[C@@H](C)CC)[C@@H](C)CC)[C@@H](C)CC)C(C)C)C(C)C
As to B4, the EC50 [nM], 0% HSA was 2.77 nM.

IVLSLDVPIKLK([AEEA-AEEA-γGlu-C18 diacid])QILLEQARQK[Aib]QRAQAETNKRILERV-NH2 [SEQ ID NO: 114] showed an EC50 [nM], 0% HSA of 0.16 nM and an EC50 [nM], 0.1% HSA of 12.4 nM.

B5: SEQ ID NO: 118 (peptide)
peptide: IVLSLD[dV]PIKLK([AEEA-AEEA-γGlu-C18 diacid])QILLKQERQK[Aib]QRQKAEKNKQILAQV-NH2
modifications: N-terminus assumed
SMILES: CC[C@H](C)[C@H](N)C(=O)N[C@H](C(=O)N[C@@H](CC(C)C)C(=O)N[C@@H](CO)C(=O)N[C@@H](CC(C)C)C(=O)N[C@@H](CC(=O)O)C(=O)N[C@@H](C(=O)N1CCC[C@H]1C(=O)N[C@H](C(=O)N[C@@H](CCCCN)C(=O)N[C@@H](CC(C)C)C(=O)N[C@@H](CCCCNC(=O)COCCOCCNC(=O)COCCOCCNC(=O)CC[C@H](NC(=O)CCCCCCCCCCCCCCCCC(=O)O)C(=O)O)C(=O)N[C@@H](CCC(N)=O)C(=O)N[C@H](C(=O)N[C@@H](CC(C)C)C(=O)N[C@@H](CC(C)C)C(=O)N[C@@H](CCCCN)C(=O)N[C@@H](CCC(N)=O)C(=O)N[C@@H](CCC(=O)O)C(=O)N[C@@H](CCCNC(=N)N)C(=O)N[C@@H](CCC(N)=O)C(=O)N[C@@H](CCCCN)C(=O)NC(C)(C)C(=O)N[C@@H](CCC(N)=O)C(=O)N[C@@H](CCCNC(=N)N)C(=O)N[C@@H](CCC(N)=O)C(=O)N[C@@H](CCCCN)C(=O)N[C@@H](C)C(=O)N[C@@H](CCC(=O)O)C(=O)N[C@@H](CCCCN)C(=O)N[C@@H](CC(N)=O)C(=O)N[C@@H](CCCCN)C(=O)N[C@@H](CCC(N)=O)C(=O)N[C@H](C(=O)N[C@@H](CC(C)C)C(=O)N[C@@H](C)C(=O)N[C@@H](CCC(N)=O)C(=O)N[C@H](C(N)=O)C(C)C)[C@@H](C)CC)[C@@H](C)CC)[C@@H](C)CC)C(C)C)C(C)C
B5 had an EC50 [nM], 0% HSA of 0.04 nM and an EC50 [nM], 0.1% HSA of 2.13 nM.

B6: SEQ ID NO: 117 (peptide)
peptide: IVLSLDVPIKLK([AEEA-AEEA-γGlu-C18 diacid])QILLKQERQK[Aib]QRQQAEKNKQILAQV-NH2
modifications: N-terminus assumed
SMILES: CC[C@H](C)[C@H](N)C(=O)N[C@H](C(=O)N[C@@H](CC(C)C)C(=O)N[C@@H](CO)C(=O)N[C@@H](CC(C)C)C(=O)N[C@@H](CC(=O)O)C(=O)N[C@H](C(=O)N1CCC[C@H]1C(=O)N[C@H](C(=O)N[C@@H](CCCCN)C(=O)N[C@@H](CC(C)C)C(=O)N[C@@H](CCCCNC(=O)COCCOCCNC(=O)COCCOCCNC(=O)CC[C@H](NC(=O)CCCCCCCCCCCCCCCCC(=O)O)C(=O)O)C(=O)N[C@@H](CCC(N)=O)C(=O)N[C@H](C(=O)N[C@@H](CC(C)C)C(=O)N[C@@H](CC(C)C)C(=O)N[C@@H](CCCCN)C(=O)N[C@@H](CCC(N)=O)C(=O)N[C@@H](CCC(=O)O)C(=O)N[C@@H](CCCNC(=N)N)C(=O)N[C@@H](CCC(N)=O)C(=O)N[C@@H](CCCCN)C(=O)NC(C)(C)C(=O)N[C@@H](CCC(N)=O)C(=O)N[C@@H](CCCNC(=N)N)C(=O)N[C@@H](CCC(N)=O)C(=O)N[C@@H](CCC(N)=O)C(=O)N[C@@H](C)C(=O)N[C@@H](CCC(=O)O)C(=O)N[C@@H](CCCCN)C(=O)N[C@@H](CC(N)=O)C(=O)N[C@@H](CCCCN)C(=O)N[C@@H](CCC(N)=O)C(=O)N[C@H](C(=O)N[C@@H](CC(C)C)C(=O)N[C@@H](C)C(=O)N[C@@H](CCC(N)=O)C(=O)N[C@H](C(N)=O)C(C)C)[C@@H](C)CC)[C@@H](C)CC)[C@@H](C)CC)C(C)C)C(C)C
As for B6, the EC50 [nM], 0% HSA came out at 0.11 nM.

IVLSLDVPIKLK([AEEA-AEEA-γGlu-C18 diacid])QILLKQERQKKQRQQAETNKQILAQV-NH2 [SEQ ID NO: 113] returned an EC50 [nM], 0% HSA of 0.1 nM and an EC50 [nM], 0.1% HSA of 11.9 nM.
